Reference: patent EP1007666B1
pKd: −log10 of the molar value.

Columns and labels:
[1] = molecular target: rat NTNRα, endogenous on embryonic rat spinal motoneurons (rat); test: cell-based or functional assay
[2] = molecular target: recombinant soluble rat GDNFRα (rat) (UniProt Q62997); test: binding experiments with biotinylated ligand, format not described
[3] = molecular target: recombinant soluble rat GDNFRα (rat) (UniProt Q62997); test: displacement of labelled rGDNF from soluble GDNFRα by 10 nM unlabeled NTN

recombinant soluble rat GDNFRα (rat), sequence (Q62997 25-430 limits assumed): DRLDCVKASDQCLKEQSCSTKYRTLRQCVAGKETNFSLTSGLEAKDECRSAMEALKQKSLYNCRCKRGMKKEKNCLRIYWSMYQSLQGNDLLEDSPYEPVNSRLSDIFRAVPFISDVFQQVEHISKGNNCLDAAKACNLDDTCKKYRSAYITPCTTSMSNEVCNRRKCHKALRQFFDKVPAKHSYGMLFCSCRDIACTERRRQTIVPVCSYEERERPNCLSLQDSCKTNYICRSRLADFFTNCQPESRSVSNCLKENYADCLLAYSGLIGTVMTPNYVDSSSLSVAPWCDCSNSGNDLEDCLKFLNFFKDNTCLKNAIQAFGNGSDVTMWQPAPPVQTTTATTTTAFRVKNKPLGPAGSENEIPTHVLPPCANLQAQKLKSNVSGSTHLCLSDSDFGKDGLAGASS

pKd [2]: < 3.00
pKd [3]: 9.00
Substance: Neurturin (NTN), species not stated at these places (ligand)
survival of E14 rat spinal motoneurons at 72 hours [1]: 50%
